Experimental data as given in patent US20200181677A1 (REGENTS OF THE UNIVERSITY OF MINNESOTA, published 2020).
Ends that are not written are not given here.

B1: peptide #11 (Optimized PKCβ Sub.), alanine-substituted, in PKCα FRET sensor (peptide)
peptide: FKLKRKGAFKKFA
modifications: also: fused to PKCα catalytic domain via 10 nm ER/K linker in FRET sensor
notes: Ala form in the FRET sensor, tethered to the PKCα catalytic domain by the 10 nm ER/K FRET linker; also called p11

Target: T1, human PKCα catalytic domain (human, UniProt P17252 336-672, limits assumed)
T1 construct: domain: catalytic domain; For activity assays the catalytic domain was isolated by TEV cleavage; also called catalytic domain of PKCα; PKC catalytic domain
Assay: time-resolved FRET (TCSPC) of eGFP/mCherry peptide-catalytic domain sensor

| Binder | Mol Fraction Bound | Mol Fraction Unbound |
| --- | --- | --- |
| B1 | 0.15 mol fraction | 0.85 mol fraction |
| RRRRAIIFI (peptide, not shown: large carriers; small tags and cut ends, also called p10) [peptide #10 (Optimized PKA Sub.), alanine-substituted, in PKCα FRET sensor] | 0.16 mol fraction | 0.84 mol fraction |
| ASQKRPAQRH (peptide, not shown: large carriers; small tags and cut ends, also called p6) [peptide #6 (Myelin Basic Protein), alanine-substituted, in PKCα FRET sensor] | 0.08 mol fraction | 0.92 mol fraction |
